Substitutions are numbered along the chain they refer to. Numbered stars: 1 amine (or outer) side, 2 acyl side, 3 side chain; on linkers, the order of the positions; unused ones are H or OH. Square brackets hold non-standard residues; d marks the D form. Side chains are listed from the residue outwards. Ends that are not written are not given here. * marks the point of attachment. C20 diacid = O=C(O)CCCCCCCCCCCCCCCCCCC(=O)*; αMePhe(2-F) = C[C@](N)(Cc1ccccc1F)C(=O)O; γGlu = O=C(O)[C@H](CCC(=O)[*:2])N[*:1]; αMeF = C[C@](N)(Cc1ccccc1)C(=O)O; AEEA = NCCOCCOCC(=O)O; Aib = CC(C)(N)C(=O)O
T1: human GIP receptor (human, UniProt P48546 22-466)
T1 sequence (looked up): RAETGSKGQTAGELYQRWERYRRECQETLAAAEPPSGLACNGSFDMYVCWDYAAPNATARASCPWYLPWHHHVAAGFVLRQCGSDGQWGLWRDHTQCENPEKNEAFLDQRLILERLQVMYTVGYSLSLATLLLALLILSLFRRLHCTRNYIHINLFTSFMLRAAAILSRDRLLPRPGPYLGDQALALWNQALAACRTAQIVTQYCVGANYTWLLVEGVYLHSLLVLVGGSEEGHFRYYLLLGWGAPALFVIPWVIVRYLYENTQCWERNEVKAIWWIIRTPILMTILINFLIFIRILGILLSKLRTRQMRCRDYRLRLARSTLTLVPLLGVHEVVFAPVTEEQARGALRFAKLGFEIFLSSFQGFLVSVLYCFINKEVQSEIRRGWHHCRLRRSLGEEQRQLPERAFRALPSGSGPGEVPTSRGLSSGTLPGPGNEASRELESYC

B1: Example 93 (peptide)
peptide: Y[Aib]EGT[αMeF]TSDYSILK([AEEA-AEEA-γGlu-C20 diacid])DKIAQ[Aib]AFIEYLIEGG-NH2
modifications: N-terminus assumed
SMILES: CC[C@H](C)[C@H](NC(=O)[C@H](CCCCN)NC(=O)[C@H](CC(=O)O)NC(=O)[C@H](CCCCNC(=O)COCCOCCNC(=O)COCCOCCNC(=O)CC[C@H](NC(=O)CCCCCCCCCCCCCCCCCCC(=O)O)C(=O)O)NC(=O)[C@H](CC(C)C)NC(=O)[C@@H](NC(=O)[C@H](CO)NC(=O)[C@H](Cc1ccc(O)cc1)NC(=O)[C@H](CC(=O)O)NC(=O)[C@H](CO)NC(=O)[C@@H](NC(=O)[C@](C)(Cc1ccccc1)NC(=O)[C@@H](NC(=O)CNC(=O)[C@H](CCC(=O)O)NC(=O)C(C)(C)NC(=O)[C@@H](N)Cc1ccc(O)cc1)[C@@H](C)O)[C@@H](C)O)[C@@H](C)CC)C(=O)N[C@@H](C)C(=O)N[C@@H](CCC(N)=O)C(=O)NC(C)(C)C(=O)N[C@@H](C)C(=O)N[C@@H](Cc1ccccc1)C(=O)N[C@H](C(=O)N[C@@H](CCC(=O)O)C(=O)N[C@@H](Cc1ccc(O)cc1)C(=O)N[C@@H](CC(C)C)C(=O)N[C@H](C(=O)N[C@@H](CCC(=O)O)C(=O)NCC(=O)NCC(N)=O)[C@@H](C)CC)[C@@H](C)CC
B2: Example 94 (peptide)
peptide: YXEGTXTSDYSILLDKIAQXKFIEYLIEGG
modifications: Aib2; αMeF6; Aib20; K21((2-[2-(2-Amino-ethoxy)-ethoxy]-acetyl)2-(γ-Glu)-CO-(CH2)18-CO2H); C-terminal NH2
B3: Example 95 (peptide)
peptide: B2 peptide with K21A, E28K
modifications: Aib2; αMeF6; Aib20; K28((2-[2-(2-Amino-ethoxy)-ethoxy]-acetyl)2-(γ-Glu)-CO-(CH2)18-CO2H); C-terminal NH2
B4: Example 98 (peptide)
peptide: B2 peptide with I17K, K21A
modifications: Aib2; αMeF6; K17((2-[2-(2-Amino-ethoxy)-ethoxy]-acetyl)2-(γ-Glu)-CO-(CH2)18-CO2H); Aib20; C-terminal NH2
B5: Example 101 (peptide)
peptide: Y[Aib]EGT[αMePhe(2-F)]TSDYSI[Aib]LDEK([AEEA-AEEA-γGlu-C20 diacid])AQ[Aib]AFIEYLIEGG-NH2
modifications: N-terminus assumed
SMILES: CC[C@H](C)[C@H](NC(=O)[C@H](CC(C)C)NC(=O)[C@H](Cc1ccc(O)cc1)NC(=O)[C@H](CCC(=O)O)NC(=O)[C@@H](NC(=O)[C@H](Cc1ccccc1)NC(=O)[C@H](C)NC(=O)C(C)(C)NC(=O)[C@H](CCC(N)=O)NC(=O)[C@H](C)NC(=O)[C@H](CCCCNC(=O)COCCOCCNC(=O)COCCOCCNC(=O)CC[C@H](NC(=O)CCCCCCCCCCCCCCCCCCC(=O)O)C(=O)O)NC(=O)[C@H](CCC(=O)O)NC(=O)[C@H](CC(=O)O)NC(=O)[C@H](CC(C)C)NC(=O)C(C)(C)NC(=O)[C@@H](NC(=O)[C@H](CO)NC(=O)[C@H](Cc1ccc(O)cc1)NC(=O)[C@H](CC(=O)O)NC(=O)[C@H](CO)NC(=O)[C@@H](NC(=O)[C@](C)(Cc1ccccc1F)NC(=O)[C@@H](NC(=O)CNC(=O)[C@H](CCC(=O)O)NC(=O)C(C)(C)NC(=O)[C@@H](N)Cc1ccc(O)cc1)[C@@H](C)O)[C@@H](C)O)[C@@H](C)CC)[C@@H](C)CC)C(=O)N[C@@H](CCC(=O)O)C(=O)NCC(=O)NCC(N)=O

Each binder was assayed against T1, human GIP receptor (assay: cell-based or functional assay).

Row | Binder | hGIPR cAMP EC50 ratio | hGIPR cAMP Rel EC50 [nM]
1 | B1 | 0.956 | 0.185
2 | B2 | 0.434 | 0.425
3 | B3 | 0.145 | 1.17
4 | B4 | 2.43 | 0.0718
5 | B5 | 2.07 | 0.0704

The binders below were run against human GLP-1 receptor (human, UniProt P43220 24-463) (assay: cell-based or functional assay).

Row | Binder | hGLP1R cAMP EC50 ratio | hGLP1R cAMP Rel EC50 [nM]
6 | B1 | 0.498 | 0.115
7 | B2 | 0.196 | 0.338
8 | B3 | 0.0576 | 1.01
9 | B4 | 0.384 | 0.157
10 | B5 | 1.06 | 0.0579

From US20220048967A1 (published 2022)
